Assay results: the supplement of paper PMC10567573

B1: SPSB1 (parent)
chain: DMRDPTYRPLKQELQGLDYCKPTR
B2: TMEM40 (parent)
chain: YGETDFHKQDGKAGLFSQEQYERN

Variants of: B1
Test: protein stability index of a GFP-peptide fusion (GPS, HEK-293T) (PSI 1-6); higher = more stable
Settings: c terminus: a fixed tail appended
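Further: lentivirally expressed fusions sorted by FACS into six bins by GFP to DsRed ratio, PSI derived from sequencing read proportions per bin multiplied by bin number.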

Question: For R8N, which protein stability index is on record?
Answer: 3.46

Question: With R8Y as the variant, how does the protein stability index read?
Answer: 3.13

Question: For R8F, which protein stability index is on record?
Answer: 2.6

Question: For R8W, which protein stability index is on record?
Answer: 2.99

Question: For D18Y, which protein stability index is on record?
Answer: 2.99

Question: For D18F, which protein stability index is on record?
Answer: 2.67

Question: With D18V as the variant, how does the protein stability index read?
Answer: 3.58

Question: Which protein stability index does the source give for D18M here?
Answer: 2.94

Question: Which protein stability index does the source give for D18K here?
Answer: 3.53

Question: With D18W as the variant, how does the protein stability index read?
Answer: 2.1

Question: Which protein stability index does the source give for D18R here?
Answer: 3.97

Question: With D18G as the variant, how does the protein stability index read?
Answer: 3.81

Question: Which protein stability index does the source give for D18P here?
Answer: 3.63

Question: For D18H, which protein stability index is on record?
Answer: 3.73

Question: For D18E, which protein stability index is on record?
Answer: 2.76

Question: With D18S as the variant, how does the protein stability index read?
Answer: 3.48

Question: Which protein stability index does the source give for D18T here?
Answer: 3.66

Question: With C20P as the variant, how does the protein stability index read?
Answer: 3.94

Question: Which protein stability index does the source give for C20V here?
Answer: 1.78

Question: For C20A, which protein stability index is on record?
Answer: 3.34

Question: With C20F as the variant, how does the protein stability index read?
Answer: 3.31

Question: For C20N, which protein stability index is on record?
Answer: 4.05

Question: For C20S, which protein stability index is on record?
Answer: 4.11

Question: With C20Q as the variant, how does the protein stability index read?
Answer: 2.8

Question: For C20K, which protein stability index is on record?
Answer: 4.6

Question: Which protein stability index does the source give for C20D here?
Answer: 4.05

Question: With K21L as the variant, how does the protein stability index read?
Answer: 3.38

Question: With K21T as the variant, how does the protein stability index read?
Answer: 2.63

Question: With K21G as the variant, how does the protein stability index read?
Answer: 3.66

Question: Which protein stability index does the source give for K21Y here?
Answer: 2.18

Question: With K21D as the variant, how does the protein stability index read?
Answer: 1.74

Question: For K21W, which protein stability index is on record?
Answer: 1.98

Question: With K21A as the variant, how does the protein stability index read?
Answer: 2.9

Question: With K11E as the variant, how does the protein stability index read?
Answer: 4.03

Question: For K11H, which protein stability index is on record?
Answer: 3.32

Question: With K11W as the variant, how does the protein stability index read?
Answer: 2.5

Question: For K11C, which protein stability index is on record?
Answer: 2.48

Question: For K11F, which protein stability index is on record?
Answer: 3.24

Question: With K11Y as the variant, how does the protein stability index read?
Answer: 4.04

Question: For K11A, which protein stability index is on record?
Answer: 3.68

Question: With K11G as the variant, how does the protein stability index read?
Answer: 3.17

Question: Which protein stability index does the source give for K11Q here?
Answer: 3.62

Question: For K11V, which protein stability index is on record?
Answer: 3.45

Question: For D1G, which protein stability index is on record?
Answer: 2.65

Question: With D1M as the variant, how does the protein stability index read?
Answer: 3.39

Question: Which protein stability index does the source give for D1Q here?
Answer: 2.83

Question: Which protein stability index does the source give for D1L here?
Answer: 2.36

Question: Which protein stability index does the source give for D1R here?
Answer: 3.32

Question: With D1H as the variant, how does the protein stability index read?
Answer: 2.94

Question: For D1K, which protein stability index is on record?
Answer: 3.06

Question: With M2W as the variant, how does the protein stability index read?
Answer: 2.57

Question: With M2L as the variant, how does the protein stability index read?
Answer: 3.01

Question: For M2K, which protein stability index is on record?
Answer: 3.13

Question: With M2F as the variant, how does the protein stability index read?
Answer: 3.42

Question: With M2S as the variant, how does the protein stability index read?
Answer: 3.77

Question: With M2H as the variant, how does the protein stability index read?
Answer: 3.64

Question: For M2A, which protein stability index is on record?
Answer: 3.22

Question: Which protein stability index does the source give for M2C here?
Answer: 3.01

Question: Which protein stability index does the source give for M2V here?
Answer: 3.02

Question: With R24L as the variant, how does the protein stability index read?
Answer: 1.6

Question: With R24P as the variant, how does the protein stability index read?
Answer: 4.29

Question: With R24V as the variant, how does the protein stability index read?
Answer: 1.92

Question: For R24E, which protein stability index is on record?
Answer: 4.56

Question: With R24C as the variant, how does the protein stability index read?
Answer: 1.93

Question: With R24T as the variant, how does the protein stability index read?
Answer: 3.27

Question: Which protein stability index does the source give for R24F here?
Answer: 2.41

Question: Which protein stability index does the source give for R24M here?
Answer: 1.64

Question: For R24A, which protein stability index is on record?
Answer: 2.32

Question: With R24Q as the variant, how does the protein stability index read?
Answer: 3.18

Question: For R24N, which protein stability index is on record?
Answer: 4.03

Question: For R24H, which protein stability index is on record?
Answer: 2.98

Variants of: B2
Test: as above
Settings: c terminus: a fixed tail appended

Question: For E3A, which protein stability index is on record?
Answer: 3.92

Question: With E3H as the variant, how does the protein stability index read?
Answer: 3.23

Question: Which protein stability index does the source give for E3S here?
Answer: 1.98

Question: Which protein stability index does the source give for E3I here?
Answer: 3.9

Question: With E3C as the variant, how does the protein stability index read?
Answer: 3.12

Question: For E3Q, which protein stability index is on record?
Answer: 3.71

Question: For R23G, which protein stability index is on record?
Answer: 4.58

Question: Which protein stability index does the source give for R23P here?
Answer: 4.21

Question: Which protein stability index does the source give for R23D here?
Answer: 4.9

Question: For R23H, which protein stability index is on record?
Answer: 4.3

Question: Which protein stability index does the source give for D10Y here?
Answer: 2.85

Question: Which protein stability index does the source give for D10G here?
Answer: 3.24

Question: Which protein stability index does the source give for D10T here?
Answer: 3.04

Question: For L15W, which protein stability index is on record?
Answer: 3.8

Question: For L15E, which protein stability index is on record?
Answer: 4.66

Question: For L15Y, which protein stability index is on record?
Answer: 3.84

Question: Which protein stability index does the source give for L15G here?
Answer: 4.73

Question: With L15A as the variant, how does the protein stability index read?
Answer: 4.39

Question: With L15N as the variant, how does the protein stability index read?
Answer: 4.5

Question: Which protein stability index does the source give for L15I here?
Answer: 4.08

Question: For D5G, which protein stability index is on record?
Answer: 2.37

Question: With D5P as the variant, how does the protein stability index read?
Answer: 4.14

Question: For D5H, which protein stability index is on record?
Answer: 2.83

Question: For D5Y, which protein stability index is on record?
Answer: 2.04

Question: With D5E as the variant, how does the protein stability index read?
Answer: 4.37

Question: For G2C, which protein stability index is on record?
Answer: 3.42

Question: Which protein stability index does the source give for G2S here?
Answer: 4.56

Question: Which protein stability index does the source give for G2D here?
Answer: 4.95

Question: For G2Y, which protein stability index is on record?
Answer: 4.57

Question: Which protein stability index does the source give for H7G here?
Answer: 4.58

Question: Which protein stability index does the source give for H7N here?
Answer: 4.91

Question: For H7K, which protein stability index is on record?
Answer: 4.18

Question: Which protein stability index does the source give for H7Y here?
Answer: 2.17

Question: With T4D as the variant, how does the protein stability index read?
Answer: 4.66

Question: With T4N as the variant, how does the protein stability index read?
Answer: 4.59

Question: For T4R, which protein stability index is on record?
Answer: 3.33

Question: For T4L, which protein stability index is on record?
Answer: 3.69

Question: Which protein stability index does the source give for T4Q here?
Answer: 4.14

Question: For E19Y, which protein stability index is on record?
Answer: 3.15

Question: Which protein stability index does the source give for E19S here?
Answer: 3.6

Question: Which protein stability index does the source give for E19P here?
Answer: 3.72

Question: With N24W as the variant, how does the protein stability index read?
Answer: 3.99

Question: Which protein stability index does the source give for Q9K here?
Answer: 3.7

Question: For Q9D, which protein stability index is on record?
Answer: 5.05

Question: Which protein stability index does the source give for Q9H here?
Answer: 3.75

Question: With Y1I as the variant, how does the protein stability index read?
Answer: 4.58

Question: With Y1E as the variant, how does the protein stability index read?
Answer: 5.36

Question: With Y1C as the variant, how does the protein stability index read?
Answer: 4.55

Question: With Y1S as the variant, how does the protein stability index read?
Answer: 5.24

Question: Which protein stability index does the source give for K8F here?
Answer: 3.77

Question: With K8L as the variant, how does the protein stability index read?
Answer: 4.29

Question: For K8P, which protein stability index is on record?
Answer: 4.7

Question: Which protein stability index does the source give for K8N here?
Answer: 4.01

Question: For K8Y, which protein stability index is on record?
Answer: 3.96

Question: Which protein stability index does the source give for A13M here?
Answer: 3.65

Question: Which protein stability index does the source give for A13E here?
Answer: 4.33

Question: For A13S, which protein stability index is on record?
Answer: 3.83

Question: For Q18I, which protein stability index is on record?
Answer: 3.58

Question: Which protein stability index does the source give for Q18S here?
Answer: 3.3

Question: With Q18M as the variant, how does the protein stability index read?
Answer: 3.23

Question: For Q18E, which protein stability index is on record?
Answer: 4.6

Question: With Q18C as the variant, how does the protein stability index read?
Answer: 2.82

Question: For Q18R, which protein stability index is on record?
Answer: 3.83

Question: With Q18D as the variant, how does the protein stability index read?
Answer: 4.5

Question: With K12C as the variant, how does the protein stability index read?
Answer: 4.35

Question: For Q20E, which protein stability index is on record?
Answer: 4.45

Question: With Q20M as the variant, how does the protein stability index read?
Answer: 3.92

Question: Which protein stability index does the source give for Q20W here?
Answer: 3

Question: Which protein stability index does the source give for Q20V here?
Answer: 3.66

Question: For Q20A, which protein stability index is on record?
Answer: 4.32

Question: With Q20Y as the variant, how does the protein stability index read?
Answer: 3.71

Question: With G11A as the variant, how does the protein stability index read?
Answer: 4.25

Question: With G11C as the variant, how does the protein stability index read?
Answer: 3.77

Question: With G11R as the variant, how does the protein stability index read?
Answer: 4.08

Question: With G11M as the variant, how does the protein stability index read?
Answer: 4.58

Question: Which protein stability index does the source give for G11I here?
Answer: 3.9

Question: Which protein stability index does the source give for G11Q here?
Answer: 4.04

Question: With G11V as the variant, how does the protein stability index read?
Answer: 4.21

Question: Which protein stability index does the source give for G14P here?
Answer: 4.34

Question: For G14C, which protein stability index is on record?
Answer: 4.18

Question: Which protein stability index does the source give for G14L here?
Answer: 3.86

Question: With G14R as the variant, how does the protein stability index read?
Answer: 3.84

Question: For G14M, which protein stability index is on record?
Answer: 4.45

Question: Which protein stability index does the source give for G14N here?
Answer: 4.47

Question: For S17P, which protein stability index is on record?
Answer: 4.03

Question: With S17K as the variant, how does the protein stability index read?
Answer: 3.44

Question: For S17N, which protein stability index is on record?
Answer: 4.52

Question: Which protein stability index does the source give for Y21G here?
Answer: 4.8

Question: With Y21A as the variant, how does the protein stability index read?
Answer: 4.04

Question: For Y21W, which protein stability index is on record?
Answer: 4.09

Question: For Y21T, which protein stability index is on record?
Answer: 5.02

Question: With F6T as the variant, how does the protein stability index read?
Answer: 4.6

Question: With F6H as the variant, how does the protein stability index read?
Answer: 5.22

Question: With F6K as the variant, how does the protein stability index read?
Answer: 4.91

Question: For E22N, which protein stability index is on record?
Answer: 3.85

Question: Which protein stability index does the source give for E22V here?
Answer: 3.76
